For experiment [1], the target named is catalytic domain of Thermomonospora fusca TF xylanase A (TfxA_CD) (Thermomonospora fusca TF).
The target in experiment [2] is DS428 (BaxA I51V) (Bacillus amyloliquefaciens).
Experiment [3] concerns the target DS241 (BaxA S31R) (Bacillus amyloliquefaciens).
Experiment [4] concerns the target DS153 (BaxA N29S) (Bacillus amyloliquefaciens).
Experiment [5] addresses recombinant Bacillus amyloliquefaciens xylanase A (reBaxA) (Bacillus amyloliquefaciens).

B1: recombinant rice xylanase inhibitor (rePRIXI) (natural protein)
chain: AGKTGQMTVFWGRNKNEGTLKETCDTGLYTTVVISFYSVFGHGRYWGDLSGHDLRVIGADIKHCQSKNIFVFLSIGGAGKDYSLPTSKSAADVADNIWNAHMDGRRPGVFRPFGDAAVDGIDFFIDQGAPDHYDDLARNLYAYNKMYRARTPVRLTATVRCAFPDPRMKKALDTKLFERIHVRFYDDATCSYNHAGLAGVMAQWNKWTARYPGSHVYLGLAAANVPGKNDNVFIKQLYYDLLPNVQKAKNYGGIMLWDRFYDKQTGYGKTVKYWA
Take B1: the inhibitory rate of xylanase activity after incubation of the xylanase with rePRIXI at 50°C for 40 min (residual activity on beechwood xylan) in experiment [1] was determined as 11.2%; in experiment [2], 11.3%; in experiment [3], 20.5%; in experiment [4], 14.8%; in experiment [5], 30.3%.

The values above are taken from paper PMC6883096.
